Key:
[1] = biological target: Xenopus laevis histone H4 V22C labelled with Oregon Green 488 (Xenopus laevis) (UniProt P62799); experiment: fluorescence polarisation; fluorescence anisotropy; 5 nM OG488-labeled histone, ligase complex titrated; 20 mM Tris-HCl, 10 mM NaCl, 5% glycerol, 1 mM DTT; BSA-coated 96-well plates, 25 °C, 1.5-2.5 h
[2] = biological target: Xenopus laevis histone H3 labelled with Oregon Green 488 at C110 (Xenopus laevis) (UniProt P84233); experiment: as above

Q: For “ASB9-ELOB/C-CUL5-RBX2 (ASB9-CRL), not neddylated (from UniProt Q96DX5 1-294; Q15370 1-118; Q15369 1-112; Q93034 1-780; Q9UBF6 1-113) (complex)”, which Kd [1] is on record?
A: Its Kd is 79.7 nM.

Q: And the Kd [2]?
A: Its Kd is 187 nM.

Q: “CUL5-RBX2 (from UniProt Q93034 1-780; Q9UBF6 1-113) (complex)” was tested. Which fold lower affinity than ASB9-CRL [1] did it give?
A: Its fold lower affinity than ASB9-CRL is 2 fold.

Q: And the fold lower affinity than NEDD8-ASB9-CRL [1]?
A: Its fold lower affinity than NEDD8-ASB9-CRL is 4 fold.

Q: And the fold lower affinity than ASB9-CRL [2]?
A: Its fold lower affinity than ASB9-CRL is 2 fold.

Q: And the fold lower affinity than NEDD8-ASB9-CRL [2]?
A: The fold lower affinity than NEDD8-ASB9-CRL was 4 fold.

Q: For “NEDD8-ASB9-ELOB/C-CUL5-RBX2 (NEDD8-ASB9-CRL) (from UniProt Q96DX5 1-294; Q15370 1-118; Q15369 1-112; Q93034 1-780; Q9UBF6 1-113; Q15843 1-76) (complex)”, which Kd [1] is on record?
A: The Kd was 48.4 nM.

Q: What about the Kd [2] of the same substance?
A: The Kd was 78.2 nM.
